These results are taken from patent US20040167074A1, “Therapeutic applications of mFLINT polypeptides” (priority 1998, published 2004).

For experiment [1], the target named is T1, mFLINT (mature human FLINT, non-Flagged, made according to Examples 8 and 9) (human) (UniProt O95407).
T1 sequence (chain, glycosylated (p-0200)): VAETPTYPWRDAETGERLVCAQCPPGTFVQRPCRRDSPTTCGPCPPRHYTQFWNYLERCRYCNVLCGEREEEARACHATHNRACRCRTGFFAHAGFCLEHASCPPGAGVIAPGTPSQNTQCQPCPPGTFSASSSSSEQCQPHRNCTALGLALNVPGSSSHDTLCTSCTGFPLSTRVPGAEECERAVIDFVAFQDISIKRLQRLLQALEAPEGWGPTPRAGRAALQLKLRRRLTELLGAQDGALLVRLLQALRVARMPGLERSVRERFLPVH
Kind of experiment: ELISA: 100 ng FLINT adsorbed, FasL 10 ng, anti-Flag M2 detection. (In an ELISA, binding on a coated surface is turned into a signal by an enzyme label.)

Experiment [2] concerns the target Fas. In words: ELISA: 100 ng Fas adsorbed, FasL 50 ng, anti-Flag M2 detection.
Experiment [3] concerns the target T1, mFLINT (mature human FLINT, non-Flagged, made according to Examples 8 and 9) (human). Kind of experiment: ELISA: 100 ng FLINT adsorbed, FasL 1.0 ng, anti-Flag M2 detection.
In experiment [4] the target is mrecFas. In words: ELISA: 100 ng mrecFas adsorbed, FasL 50 ng, anti-Flag M2 detection.
Experiment [5] has as its target mrecFas. In words: ELISA: 100 ng mrecFas adsorbed, FasL 100 ng, anti-Flag M2 detection.
Experiment [6] concerns the target Fas. Kind of experiment: ELISA: 100 ng Fas adsorbed, FasL 0.1 ng, anti-Flag M2 detection.
The target of experiment [7] is T1, mFLINT (mature human FLINT, non-Flagged, made according to Examples 8 and 9) (human). Kind of experiment: ELISA: 100 ng FLINT adsorbed, FasL 5.0 ng, anti-Flag M2 detection.
Experiment [8] concerns the target mrecFas. Kind of experiment: ELISA: 100 ng mrecFas adsorbed, FasL 500 ng, anti-Flag M2 detection.
For experiment [9], the target named is Fas. Kind of experiment: ELISA: 100 ng Fas adsorbed, FasL 1.0 ng, anti-Flag M2 detection.
Chain of Fas (P25445 whole entry): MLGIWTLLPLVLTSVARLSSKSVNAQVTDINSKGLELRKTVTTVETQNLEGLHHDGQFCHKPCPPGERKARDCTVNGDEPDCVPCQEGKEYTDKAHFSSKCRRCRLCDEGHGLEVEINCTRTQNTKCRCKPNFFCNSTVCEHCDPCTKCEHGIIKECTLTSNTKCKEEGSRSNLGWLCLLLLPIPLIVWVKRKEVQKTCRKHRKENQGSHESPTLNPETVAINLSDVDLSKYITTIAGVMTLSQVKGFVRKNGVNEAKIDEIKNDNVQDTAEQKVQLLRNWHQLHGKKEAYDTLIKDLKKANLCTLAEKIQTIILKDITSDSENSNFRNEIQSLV
In experiment [10] the target is Fas. In words: ELISA: 100 ng Fas adsorbed, FasL 10 ng, anti-Flag M2 detection.
The target of experiment [11] is Fas. In words: ELISA: 100 ng Fas adsorbed, FasL 5.0 ng, anti-Flag M2 detection.
Experiment [12] concerns the target T1, mFLINT (mature human FLINT, non-Flagged, made according to Examples 8 and 9) (human). Kind of experiment: ELISA: 100 ng FLINT adsorbed, FasL 50 ng, anti-Flag M2 detection.
For experiment [13], the target named is Fas. Kind of experiment: ELISA: 100 ng Fas adsorbed, FasL 100 ng, anti-Flag M2 detection.
The target of experiment [14] is T1, mFLINT (mature human FLINT, non-Flagged, made according to Examples 8 and 9) (human). Kind of experiment: ELISA: 100 ng FLINT adsorbed, FasL 0.1 ng, anti-Flag M2 detection.
The target of experiment [15] is mrecFas. Kind of experiment: ELISA: 100 ng mrecFas adsorbed, FasL 5 ng, anti-Flag M2 detection.
Experiment [16] deals with mrecFas. In words: ELISA: 100 ng mrecFas adsorbed, FasL 1 ng, anti-Flag M2 detection.
Experiment [17] concerns the target T1, mFLINT (mature human FLINT, non-Flagged, made according to Examples 8 and 9) (human). Kind of experiment: ELISA: 100 ng FLINT adsorbed, FasL 0.5 ng, anti-Flag M2 detection.
For experiment [18] the target is unchanged. In words: ELISA: 100 ng FLINT adsorbed, FasL 100 ng, anti-Flag M2 detection.
In experiment [19] the target is mrecFas. Kind of experiment: ELISA: 100 ng mrecFas adsorbed, FasL 10 ng, anti-Flag M2 detection.
In experiment [20] the target is Fas. In words: ELISA: 100 ng Fas adsorbed, FasL 0.5 ng, anti-Flag M2 detection.

Chain of hFasLigand (Flag-tagged) (P48023 103-281 limits assumed): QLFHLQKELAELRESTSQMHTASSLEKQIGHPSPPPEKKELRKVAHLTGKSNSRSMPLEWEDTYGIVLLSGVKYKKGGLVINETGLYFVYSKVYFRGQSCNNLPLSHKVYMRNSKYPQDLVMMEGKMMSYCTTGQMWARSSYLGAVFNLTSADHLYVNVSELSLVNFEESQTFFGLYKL

Regarding “hFasLigand (Flag-tagged) (from UniProt P48023)”, the FLINT OD in experiment [1] was 0.12 OD, 405 nM; in experiment [3], 0.02 OD, 405 nM; in experiment [7], 0.04 OD, 405 nM; in experiment [12], 0.28 OD, 405 nM; in experiment [14], 0 OD, 405 nM; in experiment [17] it was 0 OD, 405 nM. The FLINT OD in [18] was 0.78 OD, 405 nM. Also, the Fas OD, 405 nM with Fas [2] was 0.045 OD, 405 nM; with Fas [6], 0 OD, 405 nM; with Fas [9], 0 OD, 405 nM; with Fas [10] it was 0.03 OD, 405 nM; with Fas [11], 0.01 OD, 405 nM; with Fas [13], 0.18 OD, 405 nM. In the experiment with Fas [20], the Fas OD, 405 nM is 0 OD, 405 nM. In addition, the OD, 405 nM with mrecFas [4] was 0.7 OD, 405 nM; in the experiment with mrecFas [5] it was 1.2 OD, 405 nM; with mrecFas [8] it was 1.6 OD, 405 nM; in the experiment with mrecFas [15], 0.2 OD, 405 nM; in the experiment with mrecFas [16], 0.1 OD, 405 nM; in the experiment with mrecFas [19], 0.3 OD, 405 nM.
